# Laboratory results reported in IntAct's records for PubMed 10602480.
# B1: Death-associated protein kinase 3 (Rattus norvegicus (Rat)), O88764 (parent)
# chain: MSTFRQEDVEDHYEMGEELGSGQFAIVRKCQQKGTGMEYAAKFIKKRRLPSSRRGVSREEIEREVSILREIRHPNIITLHDVFENKTDVVLILELVSGGELFDFLAEKESLTEDEATQFLKQILDGVHYLHSKRIAHFDLKPENIMLLDKHAASPRIKLIDFGIAHRIEAGSEFKNIFGTPEFVAPEIVNYEPLGLEADMWSIGVITYILLSGASPFLGETKQETLTNISAVNYDFDEEYFSSTSELAKDFIRRLLVKDPKRRMTIAQSLEHSWIKVRRREDGARKPERRRLRAARLREYSLKSHSSMPRNTSYASFERFSRVLEDVAAAEQGLRELQRGRRQCRERVCALRVAAEQREARCRDGSAGLGRDLRRLRTELGRTEALRTRAQEEARAALLGAGGLKRRLCRLENRYDALAAQVAAEVQFVRDLVRALEQERLQAECGVR
# partner: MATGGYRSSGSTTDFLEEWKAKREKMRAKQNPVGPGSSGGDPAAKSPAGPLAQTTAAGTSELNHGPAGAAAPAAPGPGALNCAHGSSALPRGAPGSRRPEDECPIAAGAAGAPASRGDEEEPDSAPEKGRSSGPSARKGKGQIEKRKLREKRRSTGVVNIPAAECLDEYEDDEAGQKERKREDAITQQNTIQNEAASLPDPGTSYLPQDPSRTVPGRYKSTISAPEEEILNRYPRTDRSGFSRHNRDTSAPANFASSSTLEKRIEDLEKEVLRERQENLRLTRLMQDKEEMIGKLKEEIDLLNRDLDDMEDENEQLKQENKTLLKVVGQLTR
# Variants of: B1
# Details: with pawr_rat Pawr
row,Variant,effect of a mutation on the interaction
1,K42A,disrupting interaction
